According to patent publication US20240368283A1:

Columns and labels:
[1] = biological target: human FcγRIIβ (human) (UniProt P31994); assay: SPR, antibody captured on ProA/G HC30M chip, recombinant human FcγRIIβ injected (4 nM-5 uM); average kinetic KD
[2] = biological target: Hu FcγRIIA_H131 (human) (UniProt P12318); assay: SPR-type chip kinetics; antibody captured on protein A/G chip, receptor as analyte
[3] = biological target: Hu FcγRIIA_R131 (human) (UniProt P12318); assay: as above
Hu FcγRIIA_R131 (human), sequence (P12318 36-218 H167R limits assumed): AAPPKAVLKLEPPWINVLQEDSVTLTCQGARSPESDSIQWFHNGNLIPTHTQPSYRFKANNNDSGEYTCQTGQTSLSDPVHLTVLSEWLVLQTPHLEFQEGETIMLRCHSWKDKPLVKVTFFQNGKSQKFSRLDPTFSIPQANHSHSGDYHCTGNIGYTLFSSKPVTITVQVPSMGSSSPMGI

Hu FcγRIIA_H131 (human), sequence (P12318 36-218 limits assumed): as the sequence (P12318 36-218 H167R limits assumed) above, with R132H counted along it
human FcγRIIβ (human), sequence (P31994 46-217 limits assumed): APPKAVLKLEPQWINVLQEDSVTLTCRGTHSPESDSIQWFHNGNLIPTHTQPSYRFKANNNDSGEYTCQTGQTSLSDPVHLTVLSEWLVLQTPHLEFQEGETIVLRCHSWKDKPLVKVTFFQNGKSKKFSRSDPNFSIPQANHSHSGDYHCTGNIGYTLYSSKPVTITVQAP

| Kd [1] | Kd [2] | Kd [3] | Substance |
| --- | --- | --- | --- |
| 0.407 nM |  |  | 2B6 (antibody) |
|  | 1000 nM | 1550 nM | IgG1 WT (antibody) |
